These are literature values, as cited in publication PMC12455044.

This data set deals with thrombin (Homo sapiens) (UniProt P00734).

With PAR-1 (from UniProt P25116), the Kd was 10 nM.

Usually Kd stands for the free concentration of one partner at which half of the binding sites on the other are occupied at equilibrium, for simple one-to-one binding.
